{"source": "paper doi:10.1101/2024.05.31.596772", "about": "(2024)", "binders": {"B1": {"name": "GFP-CAMSAP3 CKK (domain or fragment)", "chain": "GPRLYKEPSAKSNKFIIHNALSHCCLAGKVNEPQKNRILEEIEKSKANHFLILFRDSSCQFRALYTLSGETEELSRLAGYGPRTVTPAMVEGIYKYNSDRKRFTQIPAKTMSMSVDAFTIQGHLWQSKKPTTPKK"}}, "target": "microtubules (pig (purified from porcine brain))", "sequence (chain, as listed by the source, chain 1 of 2)": "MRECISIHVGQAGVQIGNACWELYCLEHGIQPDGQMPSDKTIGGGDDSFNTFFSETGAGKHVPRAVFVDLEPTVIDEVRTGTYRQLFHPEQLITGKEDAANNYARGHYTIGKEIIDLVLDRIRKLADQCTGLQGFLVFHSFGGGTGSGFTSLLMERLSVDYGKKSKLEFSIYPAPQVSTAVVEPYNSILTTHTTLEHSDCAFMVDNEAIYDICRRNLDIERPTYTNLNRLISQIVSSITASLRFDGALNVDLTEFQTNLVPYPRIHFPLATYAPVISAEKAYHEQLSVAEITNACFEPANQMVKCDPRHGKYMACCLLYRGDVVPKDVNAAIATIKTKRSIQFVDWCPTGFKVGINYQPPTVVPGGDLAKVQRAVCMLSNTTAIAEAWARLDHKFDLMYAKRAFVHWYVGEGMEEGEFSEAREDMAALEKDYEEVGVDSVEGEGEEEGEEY", "sequence (chain, as listed by the source, chain 2 of 2)": "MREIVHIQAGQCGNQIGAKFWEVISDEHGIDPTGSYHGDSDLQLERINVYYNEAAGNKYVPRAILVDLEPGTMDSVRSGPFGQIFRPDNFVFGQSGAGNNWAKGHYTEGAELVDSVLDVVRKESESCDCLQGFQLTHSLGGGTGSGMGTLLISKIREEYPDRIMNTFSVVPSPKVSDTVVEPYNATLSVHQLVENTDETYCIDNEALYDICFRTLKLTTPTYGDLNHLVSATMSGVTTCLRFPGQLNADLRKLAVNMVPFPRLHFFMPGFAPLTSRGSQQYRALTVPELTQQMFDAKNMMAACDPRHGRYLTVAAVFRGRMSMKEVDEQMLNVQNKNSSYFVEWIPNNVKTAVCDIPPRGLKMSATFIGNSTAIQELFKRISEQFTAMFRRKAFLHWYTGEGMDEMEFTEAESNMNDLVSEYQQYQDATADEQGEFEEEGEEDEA"}
{"binder": "B1", "values": [{"measurement": "Kd", "value": 2140, "unit": "nM"}]}
